Laboratory results reported in paper PMC5797236, “The odd one out: Arabidopsis reticulon 20 does not bend ER membranes but has a role in lipid regulation” (Scientific Reports, 2018).

T1: GFP-RTN20 (Arabidopsis reticulon 20) (Arabidopsis thaliana, UniProt A9X4U2 1-561)
T1 construct: Reticulon 20 (RTN20), Arabidopsis thaliana, locus At2g43420; FRET donor; the methods name Gateway vectors for N- or C-terminal GFP without saying which was used for each gene; also called RTNLB20; source: tobacco (Nicotiana tabacum) leaf epidermal cells, Agrobacterium-mediated transient expression, in living cells; not shown: GFP, N-terminal, kept
T1 sequence (looked up): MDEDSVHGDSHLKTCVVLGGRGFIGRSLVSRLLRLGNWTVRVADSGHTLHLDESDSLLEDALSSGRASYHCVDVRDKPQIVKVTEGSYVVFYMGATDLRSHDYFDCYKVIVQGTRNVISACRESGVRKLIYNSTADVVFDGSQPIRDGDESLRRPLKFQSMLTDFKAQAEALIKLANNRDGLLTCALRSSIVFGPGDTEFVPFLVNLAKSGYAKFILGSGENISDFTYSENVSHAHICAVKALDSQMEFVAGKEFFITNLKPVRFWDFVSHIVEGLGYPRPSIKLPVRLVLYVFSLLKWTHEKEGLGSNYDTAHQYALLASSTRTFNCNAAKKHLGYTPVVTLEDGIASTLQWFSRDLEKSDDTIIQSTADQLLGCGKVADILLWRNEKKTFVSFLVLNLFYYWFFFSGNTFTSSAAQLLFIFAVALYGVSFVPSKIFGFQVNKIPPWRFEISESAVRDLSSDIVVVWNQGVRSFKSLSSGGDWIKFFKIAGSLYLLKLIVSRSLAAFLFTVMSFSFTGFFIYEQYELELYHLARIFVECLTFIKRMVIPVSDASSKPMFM


These binders were tested against T1, GFP-RTN20 (Arabidopsis reticulon 20) (assay: FRET or BRET; FRET-FLIM in living tobacco leaf epidermal cells; GFP-RTN20 as donor, mRFP fusions as acceptors, transiently co-expressed; two-photon excitation at 920 nm; lifetimes measured at the ER associated with the nuclear envelope; donor alone 2.4 ± 0.03 ns). Settings: partners not purified.

GFP donor fluorescence lifetime (FRET-FLIM) [ns]	Binder
2.21 ± 0.02	mRFP-RTN1 (Arabidopsis reticulon 1) (natural protein, Arabidopsis thaliana, UniProt Q9SUR3 1-275, looked up, Reticulon 1 (RTN1), Arabidopsis thaliana, locus AT4G23630; FRET acceptor; also called RTNLB1; source: tobacco (Nicotiana tabacum) leaf epidermal cells, Agrobacterium-mediated transient expression, in living cells; not shown: mRFP, N-terminal, kept) MAEEHKHDESVIAPEPAVEVVERESLMDKISEKIHHGGDSSSSSSSSDDEDEKKKTKKPSSPSSSMKSKVYRLFGREQPVHKVLGGGKPADIFMWKNKKMSGGVLGGATAAWVVFELMEYHLLTLLCHVMIVVLAVLFLWSNATMFINKSPPKIPEVHIPEEPILQLASGLRIEINRGFSSLREIASGRDLKKFLIAIAGLWVLSILGGCFNFLTLAYIALVLLFTVPLAYDKYEDKVDPLGEKAMIELKKQYAVLDEKVLSKIPLGPLKNKKKD
2.2	RTN19 fused to mRFP (Arabidopsis reticulon 19, 3BETAHSD/D2) (natural protein, Arabidopsis thaliana, UniProt Q67ZE1 1-564, looked up, Reticulon 19 (RTN19, 3beta-hydroxysteroid dehydrogenase/C-4 decarboxylase isoform 2), Arabidopsis thaliana, locus At2g26260; FRET acceptor; also called RTNLB19; source: tobacco (Nicotiana tabacum) leaf epidermal cells, Agrobacterium-mediated transient expression, in living cells) MSPAATETERWCVVTGGRGFAARHLVEMLVRYEMFCVRIADLAPAIMLDPQEGNGVLDEGLRSGRVQYISADLRDKSQVVKAFQGAEVVFHMAAPDSSINNHQLQYSVNVQGTQNVIDACVDVGVKRLIYTSSPSVVFDGVHGILNGTESMAYPIKHNDSYSATKAEGEELIMKANGRNGLLTCCIRPSSIFGPGDRLLVPSLVAAARAGKSKFIIGDGNNLYDFTYVENVAHAHVCAERALASGGDVSTKAAGQAYFITNMEPIKFWEFMSQLLDGLGYERPSIKIPAFIMMPIAHLVELTYKVLGPYGMTVPQLTPSRVRLLSCSRTFDSTKAKDRLGYAPVVPLQEGIRRTIDSFSHLTAGSQSKREGPSKASRILGGGKVADTLLWKDLKQTLIAIFILISIYYNFVATGSTVVTALSKALLVASVFLFLHGILPEKIFGYTVEKIPASQFHLSKDSSHDLSLSVISSWNTTVKALRSLCQGNDWSFFFKVVFVLLALSLAGAISLHSIFVIGLPIAFLAFLVYEKKEQEIDSIVVSFKSFACKHKSDVYEKLFGSKKHD
2.2	RTN3 fused to mRFP (Arabidopsis reticulon 3) (natural protein, Arabidopsis thaliana, UniProt Q9SH59 1-255, looked up, Reticulon 3 (RTN3), Arabidopsis thaliana, locus AT1G64090; FRET acceptor; also called RTNLB3; source: tobacco (Nicotiana tabacum) leaf epidermal cells, Agrobacterium-mediated transient expression, in living cells) MAEEHKHEESIMEKISEKIHGHDDSSSSSSDSDDDKNSASLKTKIYRLFGREQPLHKLFGGGKPADIFLWRNKKVSGGVLGAATVSWILFELLEYNLLTLFGHISILALAVLFLWSSASTFIHKSPLHIPEVHIPEDVVLQLASGLRIEINRGFTVLRDIASGRDLKKFLLVIAGLWVLSKVGSSCNFLTLIYIATVLLFTIPVLYEKYEDKVDDFGEKAMREIKKQYVEFDVKVLSKVMSKIPKGAFAFIKKKD
2.2	RTN2 fused to mRFP (Arabidopsis reticulon 2) (natural protein, Arabidopsis thaliana, UniProt Q9SUT9 1-271, looked up, Reticulon 2 (RTN2), Arabidopsis thaliana, locus AT4G11220; FRET acceptor; also called RTNLB2; source: tobacco (Nicotiana tabacum) leaf epidermal cells, Agrobacterium-mediated transient expression, in living cells) MADEHKHEESSPNLDPAVEVVERESLMEKLSEKIHHKGDSSSSSSSDDENEKKSSSSSPKSLKSKVYRLFGRERPVHKVLGGGKPADIFMWKDKKMSGGVFGGATVAWVLFELMEYHLLTLLCHVMIVALAVLFLWSNATMFIHKSPPKIPEVHIPEEPLLQLASGLRIEINRGISSLREIASGRDIKKFLSAIAGLWVLSILGGCYSFLTLAYIALVLLFTVPLFYDKYEDKVDSYGEKAMAELKKQYAVLDAKVFSKIPRGPLKDKKKD
